From patent publication US20260265800A1, “NEW FUCOSYLTRANSFERASES FOR IN VIVO SYNTHESIS OF LNFP-III” (DSM IP Assets B.V., priority 2022, published 2026)
“And” between values parts separate entries of the source, which are not always exact repeats. Equal values may be shown once.

What was measured:
[1] = test system: LNnT; assay: Deep well assay: HMO profile of LNnT-producing strains expressing α-1,3-fucosyltransferases (HPLC); assay type: cell-based, Escherichia coli; conditions: for LNFP-III, % of total HMO molar (mM) content produced by each strain: lactose as substrate, FT copy nr as in table 7 (enzyme names in text: single copy)
Procedure: Deep Well Assays in the current examples were performed as originally described to Lv et al (Bioprocess Biosyst Eng 20 (2016) 39:1737-1747) and optimized for the purposes of the current invention. More specifically, the strains disclosed in the present example were screened in 96 deep well plates using a 4-day protocol. During the first 24 hours, precultures were grown to high densities (OD600 up to 5) and subsequently transferred to a medium that allowed induction of gene expression and product formation.
More specifically, during day 1, fresh precultures were prepared using a basal minimal medium (BMM) (pH 7.0) supplemented with magnesium sulphate (0.12 g/L), thiamine (0.004 g/L) and glucose (5.5 g/L). Basal Minimal medium had the following composition: NaOH (1 g/L), KOH (2.5 g/L), KHzPO4 (7 g/L), NH&HzPO4 (7 g/L), Citric acid (0.5 g/l), trace mineral solution (5 mL/L). The trace mineral stock solution contained; ZnSO~*7H~O 0.82 g/L, Citric acid 20 g/L, Mn$04*H&O 0.98 g/L, FeSO4*7H&O 3.925 g/L, CuSO4*5H~O 0.2 g/L. The pH of the Basal Minimal Medium was adjusted to 7.0 with 5 N NaOH and autoclaved. The precultures were incubated for 24 hours at 34° C. and 1000 rpm shaking and then further transferred to 0.75 ml of a new BMM (pH 7,5) to start the main culture. The new BMM was supplemented with magnesium sulphate (0.12 g/L), thiamine (0.02 g/L), a bolus of glucose solution (0.1-0.15 g/L) and a bolus of lactose solution (5-20 g/L) Moreover, a 20% stock solution of sucrose (40-45 g/L) or maltodextrin (19-20 g/L) was provided as carbon source, accompanied by the addition of a specific hydrolytic enzyme, sucrose hydrolase or glycoamylase, respectively, so that glucose was released at a rate suitable for carbon-limited growth and similar to that of a typical fed-batch fermentation process. The main cultures were incubated for 72 hours at 28° C. and 1000 rpm shaking. For the analysis of total broth, the 96 well plates were boiled at 100° C., subsequently centrifuged, and finally the supernatants were analysed by HPLC.
Genetically modified cells expressing individual α-1,3-fucosyltransferase enzymes were screened for their ability to produce the fucosylated HMO LNFP-III.
Genetically modified strains expressing the six individual α-1,3-fucosyltransferases (table 5) were generated as described in the “Method” section. The cells were screened in the deep well assay setup as described in the “Method” section.
The molar content of individual HMOs produced by the strains was measured by HPLC.
The results of the LNFP-III producing cells are shown in table 7 as the fraction of the total molar HMO content (in percentage, %) produced by each strain.

[2] = test system: β-galactosidase activity; conditions: LacZ assay, cited from earlier work; for % Activity relative to PglpF: PglpF as positive reference, a range indicates results from multiple assays
[3] = FT copy nr as in table 7, listed as FutT109

Molecule	LNDFH-III, % of total HMO molar (mM) content produced by each strain ([1]; FT copy nr as in table 7)	LNnT, % of total HMO molar (mM) content produced by each strain ([1]; FT copy nr as in table 7) [%]	pLNnH, % of total HMO molar (mM) content produced by each strain ([1]; FT copy nr as in table 7) [%]	LNFP-III, % of total HMO molar (mM) content produced by each strain [1]	also measured
CafD: prior art α-1,3-fucosyltransferase from Helicobacter hepaticus ATCC 51449, GenBank AAP76669.1, SEQ ID NO: 41 (protein, listed as Helicobacter hepaticus) MKDDLVILHPDGGIASQIAFVALGLAFEQKGAKVKYDLSWFAEGAKGFWNPSNGYDKVYDITWDISKAFPALHIEIANEEEIERYKSKYLIDNDRVIDYAPPLYCYGYKGRIFHYLYAPFFAQSFAPKEAQDSHTPFAALLQEIESSPSPCGVHIRRGDLSQPHIVYGNPTSNEYFAKSIELMCLLHPQSSFYLFSDDLAFVKEQIVPLLKGKTYRICDVNNPSQGYLDLYLLSRCRNIIGSQGSMGEFAKVLSPHNPLLITPRYRNIFKEVENVMCVNWGESVQHPPLVCSAPPPLVSQLKRNAPLNSRLYKEKDNASA	0.0 ± 0.0%	81.9 ± 1.3	18.1 ± 1.3	0.0 ± 0.0%	3-FL, % of total HMO molar (mM) content produced by each strain ([1]; FT copy nr as in table 7): 0.0 ± 0.0%; LNFP-VI, % of total HMO molar (mM) content produced by each strain ([1]; FT copy nr as in table 7): 0.0 ± 0.0%; production of fucosylated HMOs (fucosylation of LNnT or lactose) ([1]; single copy): does not produce any fucosylated HMOs
PmglB_54UTR: promoter sequence, SEQ ID NO: 18 (nucleic acid) DNA: TGCGTCGCCATTCTGTCGCAACACGCCAGAATGCGGCGGCGATCACTAACTCAACAAATCAGGCGATGTAACCGCTTTCAATCTGTGAGTGATTTCACAGTATCTTAACAATGTGATAGCTATGATTGCACCGTGCCTACAAGCATCGTGGAGGTCCGTGACTTTCACGCATACAACAAACATTAACAAAAACCGGAGATACC					% Activity relative to PglpF [2]: 197%; Strength [2]: high (A regulatory element with an activity above 10,000 MU is considered strong)
Camp1: α-1,3-fucosyltransferase from Campylobacter sp., GenBank MBP3676691.1, SEQ ID NO: 1 (protein, listed as Campylobacter sp.) MRKDLVIIRVDGGIASQIAFVALGLEFESRGYKVKYDLSWFDEFGNGFYNEQNGYDRSYNITFDIPKAFPDIKCEIASRDEIEIYRKKYFVDNEEVIELKPPLYVGGYLGRHFDFKYRDFFAKHFNPKEIQESDSECKILLDNILSNHSCGVHIRMGDLSKEHVVYGKPLSVEYFLKNIQLVLQIEPKSKFYFFSDDLEWVKKKVIPSLHSIEYEICNVNSVEKGYLDLYLLSRCKIIIASQGSMGKYAKMLALDSKTLLITPNKNAPMENMMMVNWADSYESFEEKQIQKPLSWRNKIRLKIYKKLRNKLLQKGIL	do not produce any				
Plac_70UTR: promoter sequence, SEQ ID NO: 19 (nucleic acid) DNA: TGTGAGTTAGCTCACTCATTAGGCACCCCAGGCTTTACACTTTATGCTTCCGGCTCGTATGTTGTGTGGAATGCCTACAAGCATCGTGGAGGTCCGTGACTTTCACGCATACAACAAACATTAACCAAGGAGGAAACAGCT					% Activity relative to PglpF [2]: 182-220%; Strength [2]: high (A regulatory element with an activity above 10,000 MU is considered strong)
Hpull1: α-1,3-fucosyltransferase from Helicobacter pullorum, GenBank WP_065831246.1, SEQ ID NO: 3 (protein, listed as Helicobacter pullorum) MRKDLVIIRVDGGIASQISFVALGLEFESRGYKVKYDLSWFDEFGNGICNEQNGYDRSYNIVFDIPKAFPDIKCEIASRDEIEIYRKKYFVDNEEVIELKPPLYVGGYLGRHFNFKYRDFFAKHFNPKEIQESDSECKILLDNILSNHSCGVHIRRGDLSKEHVVYGKPLSVEYFLKNIQLVLQIEPKSKFYFFGDDLEWVKKKVIPSLNSIEYEICNVNSVEKGYLDLYLLSRCKIIIASQGSMGKFAKMLASDTETLLIAPNKNAPMENMIMVNWVDSYESSGEKQIQKPLSWRNKIRLKIYKKFRNKLLQKGIL	do not produce any				
FutB: prior art α-1,3-fucosyltransferase from Helicobacter pylori, GenBank WP_000487430.1, SEQ ID NO: 6 (protein, listed as Helicobacter pylori) MFQPLLDAFIESASIEKMVSKSPPPPLKIAVANWWGDEEIKEFKKSVLYFILSQRYAITLHQNPNESSDLVFSNPLGAARKILSYQNTKRVFYTGENESPNFNLFDYAIGFDELDFNDRYLRMPLYYAHLHYEAELVNDTTAPYKLKDNSLYALKKPSHHFKENHPNLCAVVNDESDLLKRGFASFVASNANAPMRNAFYDALNSIEPVTGGGSVRNTLGYKVGNKSEFLSQYKFNLCFENSQGYGYVTEKILDAYFSHTIPIYWGSPSVAKDFNPKSFVNVHDFNNFDEAIDYIKYLHTHPNAYLDMLYENPLNTLDGKAYFYQDLSFKKILDFFKTILENDTIYHNNPFIFYRDLHEPLISIDDLRVNYDDLRVNYDDLRVNYDDLRVNYDDLRVNYDDLRVNYDDLRVNYDDLRVNYDDLRVNYDDLRVNYDRLLQNASPLLELSQNTTFKIYRKAYQKSLPLLRTIRRWVKK	0.0 ± 0.0%	78.9 ± 0.4	13.2 ± 0.2	6% and 6.2 ± 0.5%	
FucT109: prior art α-1,3-fucosyltransferase from Bacteroides fragilis ATCC 25285, GenBank CAH09151.1, SEQ ID NO: 42 (protein, listed as Bacteroides fragilis) MCDCLSIILLVKMKKIYLKFVDFWDGFDTISNFIVDALSIQYEVVLSNEPDYLFYSCFGTSHLEYDCIKIMFIGENIVPDFNVCDYAIGFNYIDFGDRYLRLPLYAIYDGFSNLQNKKIDVNKALDRKFCSIVVSNNKWADPIRETFFKLLSSYKKVDSGGRAWNNIGGPVDNKLDFISQYKFNIAFENSRVLGYTTEKIMEPMQVNSIPVYWGNPLVGKDFNVDSFVNAHDFDSLERLVEYIIELDSSKDKYLEMLEKPWLLDKTYLDWKQLLLNFINNIMMKSYKDAKYLVNYGHAGKYRNEQRFWGRCERKFKLQRIIEYYSQLFDRK		28.7 ± 1.6	0.8 ± 0.7	26%	3-FL, % of total HMO molar (mM) content produced by each strain ([1]; FT copy nr as in table 7): 2.0 ± 1.8%; LNFP-VI, % of total HMO molar (mM) content produced by each strain ([1]; FT copy nr as in table 7): 18%; LNDFH-III, % of total HMO molar (mM) content produced by each strain [1, 3]: 24% and 23.9 ± 1.8%; LNFP-VI, % of total HMO molar (mM) content produced by each strain [1, 3]: 18.0 ± 2.6%; LNFP-III, % of total HMO molar (mM) content produced by each strain ([1]; listed as FutT109): 26.6 ± 3.5%
Med1: α-1,3-fucosyltransferase from Mediterranea sp. An20, GenBank WP_087337236.1, SEQ ID NO: 4 (protein, listed as Mediterranea sp.) MRKILILFYNKLWGVSWENEACASIPDGFELTDDRSRMAEADAVVFHLPDLARCMDGEEIEKRDGQLWVTWNLECDDNYPWVEAPEIRDLFDLRIGYRQQDDVWYPYFSFIRAEAFTRLPPRRPPLDKACLFVSSPFNRSHRFEFLRELMRHTEVDSFGRMLHNKDLPADEGRKTLMEKIADYKFVIGVENALARDYVTEKFFQPLLAGTVPVYRGAPNVEEFAPGRHCFVDARAFRSPADLAGFMNRCYEHPALYDELTAWRTQPLQPGFVQKLEQVKEHPFVRLCRVVEEKIRRIEYKIT	do not produce any				
